Literature values as cited in article doi:10.1101/2023.01.13.523947.

Test system: 35I9 anti-DNA mAb (Mus musculus (NZWxNZB F1))

Row | Substance | Kd [µM]
1 | dsDNA (cited Kd) | 0.09
2 | ssDNA (cited Kd) | 0.71
